# Measured values: the nanobody polyreactivity screen of Harvey et al. (2022)
# Experiment: yeast display, Sf9 membrane polyspecificity reagent, FACS + sequencing; frameworks hold sequencing errors
# Procedure, shortened: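 A synthetic nanobody library was expressed on Saccharomyces cerevisiae BJ5465 by galactose induction for 36–48 hours. The library was stained for 1 hour at 4 °C with 10% biotinylated, detergent-solubilized Sf9 membrane reagent and enriched with streptavidin microbeads before FACS. Low and high (top ~1%) gates were set on anti-HA fluorescence for expression and streptavidin fluorescence for reagent binding, and each polyreactivity label reflects the gate of origin.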
row,Sequence,polyreactivity (PSR sort gate)
1,QVQLVESGGGLVQAGGSLRLSCAASGYTLRIYAMGWYRQAPGKERELVAAISRGGGTTRYADSVKGRFTISRDNAKNTVYLQMNSLKPEDTAVYYCNKDVYGYSRTGPRGYDYWGQGTQVTVSS,high polyreactivity
2,QVQLVESGGGLVQAGGSLRLSSAASGITFDIYDMGWYRQAPGKERELVAAISYSGGSTYYADSVKGRFTISRDNAKNTVYLQMNSLTPEDTAVYDCAAAWYYNSDNEFDYWGQGTQVTVSS,low polyreactivity
3,QVQLAESGGGLVQAGGSLRLSSAASGRTIGFNGMGWYRQAPGKERELVAAITWNGDSTYADSVKGRFTISRDNAKNTVYLQMNSLKPDDTAVYYCGAEVVAQMNYWGQGTQVTVSS,low polyreactivity
4,QVQLVESGGGLVQAGGSLRLSCAPSGFTFYTYAMGWYRQAPGKERELVAVISRSGGRTNYADSVKGRFTISRDNAKNTVYLQMNSLKPEDTAVYYCNRYDRQRSWSVGYDYWGQGTQVTVSS,high polyreactivity
5,QVQLVESGGGLVQAGGSLRLSSAASGLTFINYDMGWYRQAPAKERELVAAISQIGTSTYYADSVKRRFTISRDNAKNTVYLQMNSLKPEDTAVYYCAAEFPTVYIPWSEMDYWGQGTQVTVSS,high polyreactivity
6,QVQLVESGGGLVQAGGSLRLSCAASGITFTGNSMGWYRQAPGKERELVAAISNRGGSTYYADSVKGRFTISRDNAKNTVYLQMNSLKREDTAVYYCRTSTPRRVSGNYWGQGTQVTVSS,high polyreactivity
7,QVQLVESGGGLVLAGGSLRLSCAASGITFKWYAMGWYRQAPGKERELVAAITSGGGTNYADSVKGRFTISRDNAKNTVYLQMNSLKPEDTAVYYCAARFYQLPWRRYDYWGQGTQVTVSS,high polyreactivity
8,QVQLVESGGGLVQAGGSLRLSCAASGNTFRAYAMGWYRQAPGKERELVATITWSGGITDYADSVKGRFTISRDNAKNTVYLQMNSLKPEDTAVYYCAARSYRWWNFNYWGQGTQVTVSS,high polyreactivity
9,QVQLVESGGGLVQAGVSLRLSCAASGSTFGWYAMGWYRQAPGKERELVAAISASGGSTYYADSVKGRFTISRDNAKNNVYLQMNSLKPEDTAVYYCAVRAWKFLTRYDYWGQGTKVTVSS,high polyreactivity
10,QVQLVESGGGLVQAGGSLRLSCAASGSTFNTNTMGWYRQAPGKERELVAAISQSGTRTYYANSVKGRFTISRDNAKYTVYFQMNSLKPEDTAVYYCSADRQRYTSSSRKGLGYWGQGTQVTVSS,high polyreactivity
11,QVQLVESGGGLVQAGGSLRLSCAASGSTFDYNAMGWYRQAPGKERELVAAISWRGGGTYYADSVKGRFTISRDNAKNTVYLQMNSLKPEDTAVYYCNTVSRNGFYRSRHDYWGQGTQVTVSS,low polyreactivity
12,QVQLVESVGCLVQAGGSLRLSCPASGFNFPGYALGWYRQAPGKERELVAAITGSGGRTYYADSVKGRFTISRDNAKNTVYLQMNSLKQEDTAVYYCLARSYYNWNDYWGQGTQVTVSS,high polyreactivity
13,QVQLVESGGGVVQAGGSLRLSCAASGRISRGNAMGWYRPAPGKEREFVAAISWSGDGTYYADSVKGRFTISRDNAKYTVYLQMNSLNPEDTAVYYCNTAVKVERDYWGQGTQVTVSS,low polyreactivity
14,PVQLVESGGGLVQAGGSLRLSCAASGFTFANYAMGWYRQAPGKERELVAAISRGGTSTYYADSVKGRFTISRDNAKNTVYFQMNSLKPEDTEVYFCNAVKVGYSLYDYWGQGTQVTVSS,high polyreactivity
15,QVQLVESGGGLVQEGGSLRLSCAASGSILAGYAMGWYRQPPRKERELVDDITSGGDTYYADSVKGRFTISRDNAKNTVYLQMKSLKPEDTAVYYCNAVYEGRYEYAYYYRYDYWGQGTQVTVSS,high polyreactivity
16,QVQLVESGGGLVQAGGSLRLSCAASGITFTGYGMGWYRQAPGKERELVAAIRLRTGSTYYADSVKGRFTISRDNAKNTVYLQMYSLKPEDTAVYYCAAAFPRYRSRAIRVDYWGQGTQVTVSS,high polyreactivity
17,QVQLVESGGGLVQAGGSLRLSCAASGITSRQYAMGWYRQAPGKERELVAAISFSGGRTYYADSVKGRFTISRDNAKNTVYLQMNSLKPEDTAVYYCATRNRYSPRDYWGQGTQVTVSS,high polyreactivity
18,QVQLVESGVGLVQAGGSLRLSCAASGLIIYAYVMGWYRQAPGKERELVATISRSGARTHYADSVKGRFTISRDNAKNTVYLQMNSLKPEDTAVYYCAADVYLSSYEKYGYWGQGTQVTVSS,high polyreactivity
19,QVQLVESGGGLVQAGGSLRLSCAASGLIFSYYAMGWYRQAPGKERELVGAITGSGGSTYYADSVKGRFTISRDNAKNTVYLQMNSLKPEDTAVYYCAAGRYAYTLSRKYDYWGQGTQVTVSS,high polyreactivity
20,QVQLVESGGGLVQAGGSLRLSCAASGSTFWGNAMGWYRQAPGKERELVAAISNGGSTNYADSVKGRFTISRDNAKNTVYLQMNSLKPEDTAVYYCAADGHTSNGVSLHGYWGQGTQVTVSS,low polyreactivity
21,QVQLVESGGGLVQAGGSLRLSCAASGIIFEYYTIGWYRQATGKERELVASITYDGDSTYYADSVKGRFTISRDNAKNTVYLQMNSLKPEDTAVYYCAADYYSVYSSFGHYYWGQGTQVTVSS,low polyreactivity
